The values below come from patent US20110104167A1, “Compositions and Methods for Diagnosing and Treating Insulin Resistance” (YEDA RESEARCH AND DEVELOPMENT CO. LTD., priority 2004, published 2011).

For assay [1], the system named is Fao cells. Nature of the assay: Insulin-induced Tyr phosphorylation of Myc-IRS-1 in adenovirus-infected Fao cells. It is filed as cell-based, rat. As to conditions: 60 min insulin. The procedure:
FIGS. 3a-b show Insulin-induced Tyr phosphorylation of IRS-1^7A in Fao cells. FIG. 3a—Fao cells were infected with Ad-Myc-IRS-1^WT or Ad-Myc-IRS-1^7A at 7×10^7 PFU/ml. Following 48 hours, the cells were starved in serum-free RPMI medium for 16 h and were then treated with insulin for the indicated times. Cell extracts were prepared and samples (1 mg) were subjected to immunoprecipitation (IP) with anti-Myc antibodies. Immunocomplexes were resolved on 7.5% SDS-PAGE and immunoblotted with anti-pY antibodies. In parallel, samples (100 μg) of total cell extracts were resolved on 7.5% SDS-PAGE and immunoblotted with anti-Myc antibodies. FIG. 3b—The bands corresponding to anti-pY/total Myc-IRS-1 were quantified by densitometry and are presented as a bar graph. Results are of a representative experiment carried out in duplicate.
FIGS. 11a-c show the effects of TPA and anisomycin on insulin-stimulated Tyr phosphorylation of IRS-1^WT, IRS-1^7A and IRS-1^408A. Fao cells were infected with Adeno-myc-IRS-1 wild type (WT); the 7A mutant; or the S408A mutant at a titer of 4-6×10^7 PFU/ml. Following 48 hours the cells were deprived of serum for 16 h, and were then treated for 60 min with 200 nM TPA (FIG. 11a), or 50 ng/ml anisomycin (FIG. 11b), followed by treatment with 100 nM insulin for the indicated times. […]

For assay [2], the system named is Fao cells. The experiment in a line: Effect of inducers of insulin resistance on insulin-stimulated Tyr phosphorylation of IRS-1 in Fao cells. Format: cell-based, rat. The protocol:
FIGS. 5a-c show the effects of TPA and anisomycin on insulin-induced Tyr phosphorylation of IRS-1^7A in Fao cells. Fao cells were infected with Ad-Myc-IRS-1^WT or Ad-Myc-IRS-1^7A at 7×10^7 PFU/ml. Following 48 hours the cells were deprived of serum for 16 h, and were then treated for 60 min with 200 nM TPA (FIG. 5a); 50 ng/ml of anisomycin (FIG. 5b) or 1 μg/ml of anisomycin (FIG. 5c). This was followed by treatment with 100 nM insulin for 2 min (FIG. 5a) or for the indicated times (FIGS. 5b-c). Cell extracts were prepared, and samples (1 mg) were subjected to immunoprecipitation (IP) with anti-Myc antibodies (FIG. 5a). Immunocomplexes were resolved on 7.5 SDS-PAGE and were immunoblotted with the indicated antibodies. Alternatively, total cell extracts (FIGS. 5b-c) were resolved on 7.5% SDS-PAGE and immunoblotted with the indicated antibodies. Results of a representative of four experiments are presented. The results of two independent experiments done in duplicates were quantified (FIG. 5a, right panel).
FIGS. 6a-b show the dose dependent effect of Palmitic acid on Insulin-induced Tyr phosphorylation of IRS-1 mutants in Fao cells. Fao cells were infected with Ad-Myc-IRS-1^WT or Ad-Myc-IRS-1^7A at 7×10^7 PFU/ml. Following 24 hours the cells were deprived of serum for 12 h, and were then further incubated for 12 h with or without the indicated concentrations of palmitic acid in serum free medium prior to being stimulated with 100 nM insulin for the indicated times. Cell extracts (100 μg) were resolved on 7.5% SDS-PAGE and immunoblotted with anti-PY and anti-Myc antibodies. The results of two independent experiments done in duplicates were quantified.
FIGS. 11a-c show the effects of TPA and anisomycin on insulin-stimulated Tyr phosphorylation of IRS-1^WT, IRS-1^7A and IRS-1^408A. Fao cells were infected with Adeno-myc-IRS-1 wild type (WT); the 7A mutant; or the S408A mutant at a titer of 4-6×10^7 PFU/ml. Following 48 hours the cells were deprived of serum for 16 h, and were then treated for 60 min with 200 nM TPA (FIG. 11a), or 50 ng/ml anisomycin (FIG. 11b), followed by treatment with 100 nM insulin for the indicated times. Cell extracts were prepared, samples (1 mg) were subjected to immunoprecipitation (IP) with anti-Myc antibodies. Immunocomplexes were resolved on 7.5% SDS-PAGE and immunoblotted with anti-PY or anti IRS-1 antibodies.
Infection of Fao cells with adenovirus—Fao cells were grown in RPMI medium containing 10% FCS. At 70% confluence cells were infected with adenoviruses harboring the gene of interest at a titer of 7 10^7 PFU/ml. After incubation for 2 h hours at 37° C., the virus-containing medium was diluted 1:5 in fresh RPMI medium. After 24 h the medium was replaced with a fresh RPMI medium containing 10% FCS. […]

B1: IRS-1^408A: mouse IRS-1 with Ser408 mutated to Ala (protein)
chain: MEQKLISEEDLNMASPPPDTDGFSDVRKVGYLRKPKSMHKRFFVLRAASEAGGPARLEYYENEKKWRHKSSAPKRSIPLESCFNINKRADSKNKHLVALYTRDEHFAIAADSEAEQDSWYQALLQLHNRAKAHHDGAGGGCGGSCSGSSGVGEAGEDLSYDTGPGPAFKEVWQVILKPKGLGQTKNLIGIYRLCLTSKTISFVKLNSEAAAVVLQLMNIRRCGHSENFFFIEVGRSAVTGPGEFWMQVDDSVVAQNMHETILEAMRAMSDEFRPRSKSQSSSSCSNPISVPLRRHHLNNPPPSQVGLTRRSRTESITATSPASMVGGKPGSFRVRASSDGEGTMSRPASVDGSPVSPSTNRTHAHRHRGSSRLHPPLNHSRSIPMPSSRCSPSATSPVSLSSSSTSGHGSTSDCLFPRRSAASVSGSPSDGGFISSDEYGSSPCDFRSSFRSVTPDSLGHTPPARGEEELSNYICMGGKGASTLAAPNGHYILSRGGNGHRYIPGANLGTSPALPGDEAAGAADLDNRFRKRTHSAGTSPTISHQKTPSQSSVASIEEYTEMMPAAYPPGGGSGGRLPGYRHSAFVPTHSYPEEGLEMHHLERRGGHHRPDTSNLHTDDGYMPMSPGVAPVPSNRKGNGDYMPMSPKSVSAPQQIINPIRRHPQRVDPNGYMMMSPSGSCSPDIGGGSSSSSSISAAPSGSSYGKPWTNGVGGHHTHALPHAKPPVESGGGKLLPCTGDYMNMSPVGDSNTSSPSECYYGPEDPQHKPVLSYYSLPRSFKHTQRPGEPEEGARHQHLRLSSSSGRLRYTATAEDSSSSTSSDSLGGGYCGARPESSLTHPHHHVLQPHLPRKVDTAAQTNSRLARPTRLSLGDPKASTLPRVREQQQQQQSSLHPPEPKSPGEYVNIEFGSGQPGYLAGPATSRSSPSVRCPPQLHPAPREETGSEEYMNMDLGPGRRATWQESGGVELGRIGPAPPGSATVCRPTRSVPNSRGDYMTMQIGCPRQSYVDTSPVAPVSYADMRTGIAAEKASLPRPTGAAPPPSSTASSSASVTPQGATAEQATHSSLLGGPQGPGGMSAFTRVNLSPNHNQSAKVIRADTQGCRRRHSSETFSAPTRAGNTVPFGAGAAVGGSGGGGGGGSEDVKRHSSASFENVWLRPGDLGGVSKESAPVCGAAGGLEKSLNYIDLDLAKEHSQDCPSQQQSLPPPPPHQPLGSNEGNSPRRSSEDLSNYASISFQKQPEDRQ
Consider B1, for which the “Tyr phosphorylation level after prolonged insulin treatment (Example 9)” value in assay [1] was “reduced to a similar extent”. The “protection against the inhibitory effects of anisomycin” value in assay [2] (50 ng/ml anisomycin 60 min) is “could not protect”. The “protection from the inhibitory effects of TPA on insulin-stimulated Tyr phosphorylation” value in assay [2] (200 nM TPA 60 min) is recorded as “partially prevented”.
